This is an account of results in patent US20190338048A1 (published 2019).

Assay [1] concerns the target Recombinant human IL-17A (human, UniProt Q16552 20-155, limits assumed). In words: SPR.
Target sequence in this assay (Q16552 20-155 limits assumed): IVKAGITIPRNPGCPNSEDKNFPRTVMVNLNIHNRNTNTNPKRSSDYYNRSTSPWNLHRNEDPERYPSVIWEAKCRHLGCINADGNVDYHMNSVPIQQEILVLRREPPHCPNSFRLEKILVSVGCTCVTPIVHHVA
Assay [2] has as its target T1, His-tagged recombinant human CD-19 (human, UniProt P15391 20-291, limits assumed).
T1 sequence (looked up): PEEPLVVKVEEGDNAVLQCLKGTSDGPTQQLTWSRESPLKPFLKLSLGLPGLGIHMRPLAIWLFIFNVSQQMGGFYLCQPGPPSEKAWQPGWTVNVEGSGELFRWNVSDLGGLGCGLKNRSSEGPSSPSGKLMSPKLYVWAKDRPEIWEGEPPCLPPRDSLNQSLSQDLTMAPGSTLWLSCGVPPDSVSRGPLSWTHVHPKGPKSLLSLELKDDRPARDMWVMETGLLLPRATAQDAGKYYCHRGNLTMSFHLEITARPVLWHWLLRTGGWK
In words: SPR. For orientation: Surface plasmon resonance follows binding to a sensor surface in real time, without labels.

The target in assay [3] is His-tagged Influenza B Hemagglutinin (B/Brisbane/60/2008) (Influenza B virus (B/Brisbane/60/2008)). Nature of the assay: SPR.
For assay [4], the target named is T1, His-tagged recombinant human CD-19. In words: SPR. This is another data set of the same source.
The target in assay [5] is T2, His-tagged Influenza B Hemagglutinin (B/Brisbane/60/2008) (Influenza B (B/Brisbane/60/2008)). Nature of the assay: SPR.
For assay [6], the target named is T3, His-tagged recombinant human CD-19 (human, UniProt P15391 20-291, limits assumed).
T3 sequence (looked up): T1 sequence (looked up)
In words: SPR. The source holds these as a separate data set.

Assay [7] has as its target T2, His-tagged Influenza B Hemagglutinin …. In words: SPR. The source holds these as a separate data set.
Assay [8] has as its target T3, His-tagged recombinant human CD-19. Nature of the assay: SPR. The source holds these as a separate data set.
The target in assay [9] is T4, Recombinant HER2 protein (HER2-ECD) (UniProt P04626 23-652, limits assumed). Nature of the assay: SPR, Fab captured, HER2 as analyte.
In assay [10] the target is T4, Recombinant HER2 protein (HER2-ECD). Nature of the assay: SPR.
For assay [11], the target named is T5, His-tagged recombinant human CD-19 (human, UniProt P15391 20-291, limits assumed).
T5 sequence (looked up): T1 sequence (looked up)
Nature of the assay: SPR. The source holds these as a separate data set.

The target of assay [12] is T6, Recombinant human IL-17A (human, UniProt Q16552 20-155, limits assumed). In words: SPR. This is another data set of the same source.
T6 sequence (Q16552 20-155 limits assumed): as the sequence (Q16552 20-155 limits assumed) above
Assay [13] deals with T6, Recombinant human IL-17A. In words: SPR. The source holds these as a separate data set.

Positions count from the first letter of the chain named. Names may count otherwise. Where two headings read alike, the source gives them in different places.

B1: CAT-2200 Fab heterodimer H1L1 of designs 10662-10731 and 10662-10733 (H1 L45F, L1 unmodified) (Fab, name in Kabat numbering, V domains shown, not shown: small tags and cut ends)
VH: EVQLLESGGGLVQPGGSLRLSCAASGFTFSSYAMSWVRQAPGKGFEWVSAISGSGGSTYYADSVKGRFTISRDNSKNTLYLQMNSLRAEDTAVYYCARDLIHGVTRNWGQGTLVTVSS
VL: NFMLTQPHSVSESPGKTVTISCTRSSGSLANYYVQWYQQRPGSSPTIVIFANNQRPSGVPDRFSGSIDSSSNSASLTISGLKTEDEADYYCQTYDPYSVVFGGGTKLTVLG
What is called Kd is the free concentration of one partner at which half of the binding sites on the other are occupied at equilibrium, for simple one-to-one binding. Regarding B1, in the assay with Recombinant human IL-17A [1], the Kd worked out at 290 pM.

B2: Design 2979 bispecific antibody, System C (CR8071 H1/L1 & SGN-CD19a H2/L2) (bispecific antibody)
chain 1: QVQLVQSGAEVKKPGASVRVSCRASGYIFTESGITWVRQAPGQGLEWMGWISGYSGDTKYAQKLQGRVTMTKDTSTTTAYMELRSLRYDDTAVYYCARDVQYSGSYLGAYYFDYWSPGTLVTVSSASTKGPSVFPLAPSSKSTSGGTAALGCLVKDYFPEPVTVSWNSGALTSGVHTFPAVLQSSGLYSLKSVVTVPSSSLGTQTYICNVNHKPSNTKVDKKVEPKSCDKTHTCPPCPAPELLGGPSVFLFPPKPKDTLMISRTPEVTCVVVDVSHEDPEVKFNWYVDGVEVHNAKTKPREEQYNSTYRVVSVLTVLHQDWLNGKEYKCKVSNKALPAPIEKTISKAKGQPREPQVYVYPPSRDELTKNQVSLTCLVKGFYPSDIAVEWESNGQPENNYKTTPPVLDSDGSFALVSKLTVDKSRWQQGNVFSCSVMHEALHNHYTQKSLSLSPG
chain 2: not shown
chain 3: not shown
chain 4: EIVLTQSPATLSLSPGERATLSCSASSSVSYMHWYQQKPGQAPRLLIYDTSKLASGIPARFSGSGSGTDFTLTISSLEPEDFAVYYCFQGSVYPFTFGQGTKLEIKRTVAAPSVFIFPPSDEQLKSGTARVGCLLNNFYPREAKVQWKVDNALQSGNSQESVTEQDSKDSTYSLRSTLTLSKADYEKHKVYACEVTHQGLSSPVTKSFNRGEC
As to B2, the results for the equilibrium dissociation constant (Kd) in assay [2] and in assay [3] were 45100 pM and 930 pM, respectively. The “Difference in H2L2 log(KD) from wild type” value in [4] turned out to be 0.7.

B3: Design 2816 bispecific antibody, System C (CR8071 H1/L1 & SGN-CD19a H2/L2) (bispecific antibody)
chain 1: B2 chain 1 with Q183K, K191S
chain 2: not shown
chain 3: not shown
chain 4: B2 chain 4 with Q123R, R130S, G132V, Q159K, R175S, T177R
As to B3, the figures for the dissociation constant (Kd) in assay [5] and in [6] were 420 pM and 281000 pM, respectively.

B4: Design 4320 bispecific antibody, System C (CR8071 H1/L1 & SGN-CD19a H2/L2) (bispecific antibody)
chain 1: B2 chain 1 with L153K, F178G, K191S
chain 2: not shown
chain 3: not shown
chain 4: B2 chain 4 with Q123K, R130S, G132V, L134A, R175S, T177R
In the case of B4, the Kd was determined as 490 pM in assay [7] and 258000 pM in [8].

B5: Pertuzumab Fab heterodimer H2L2 of design 10674-10749 (H2 Q39K, L2 Q38E) (Fab, name in Kabat numbering, V domains shown, not shown: small tags and cut ends)
VH: EVQLVESGGGLVQPGGSLRLSCAASGFTFTDYTMDWVRKAPGKGLEWVADVNPNSGGSIYNQRFKGRFTLSVDRSKNTLYLQMNSLRAEDTAVYYCARNLGPSFYFDYWGQGTLVTVSS
VL: DIQMTQSPSSLSASVGDRVTITCKASQDVSIGVAWYQEKPGKAPKLLIYSASYRYTGVPSRFSGSGSGTDFTLTISSLQPEDFATYYCQQYYIYPYTFGQGTKVEIKR
Regarding B5, the “Change in KD of H2L2 Fab vs wild type, -(log(KD_design)-log(KD_wt))” value in [9] is 0.12 log(KD) difference. The Kd in assay [10] is 6090 pM.

B6: Design 4040 SGN-CD19a H2L2 arm in OAA (one-armed antibody) format (antibody, V domains shown)
VH: QVTLRESGPALVKPTQTLTLTCTFSGFSLSTSGMGVGWIRQPPGKAPEWLAHIWWDDDKRYNPALKSRLTISKDTSKNQVVLTMTNMDPVDTAAYYCARMELWSYYFDYWGQGTLVTVSS
VL: EIVLTQSPATLSLSPGERATLSCSASSSVSYMHWYQQKPGQAFRLLIYDTSKLASGIPARFSGSGSGTDFTLTISSLEPEDFAVYYCFQGSVYPFTFGQGTKLEIKR
In the case of B6, the Kd in assay [11] amounted to 22400 pM.

B7: Design 4320 bispecific antibody, System A (CAT-2200 H1/L1 & Pertuzumab H2/L2) (bispecific antibody)
chain 1: not shown
chain 2: NFMLTQPHSVSESPGKTVTISCTRSSGSLANYYVQWYQQRPGSSPTIVIFANNQRPSGVPDRFSGSIDSSSNSASLTISGLKTEDEADYYCQTYDPYSVVFGGGTKLTVLGQPKAAPSVFLFPPSSEELQANTATLDCLISDFYPGAVTVAWKADSSPVKAGVETTTPSKQSNNKYAAFSYLSLTPEQWKSHRSYSCQVTHEGSTVEKTVAPTECS
chain 3: not shown
chain 4: DIQMTQSPSSLSASVGDRVTITCKASQDVSIGVAWYQQKPGKAPKLLIYSASYRYTGVPSRFSGSGSGTDFTLTISSLQPEDFATYYCQQYYIYPYTFGQGTKVEIKRTVAAPSVFIFPPSDEKLKSGTASVVCALNNFYPREAKVQWKVDNALQSGNSQESVTEQDSKDSTYSLSSRLTLSKADYEKHKVYACEVTHQGLSSPVTKSFNRGEC
Regarding B7, the Kd with Recombinant human IL-17A [12] worked out at 360 pM.

B8: Design 2816 bispecific antibody, System A (CAT-2200 H1/L1 & Pertuzumab H2/L2) (bispecific antibody)
chain 1: not shown
chain 2: B7 chain 2 with F120T, T133K, D137V, F179S, S183E
chain 3: not shown
chain 4: B7 chain 4 with K124R, A135L, Q160K
Turning to B8, in the assay with Recombinant human IL-17A [13], the Kd stood at 510 pM.
